Assay results reported in US20240199750A1.

Columns and labels:
[1] = molecular target: IL-2Rβ (CD122) on NK cells (human) (UniProt P14784); experiment: cell-based or functional assay
[2] = molecular target: high affinity IL-2Rαβγ complex on Treg cells (human) (UniProt P01589); experiment: cell-based or functional assay
Chain of UniProt P01589 (P01589 22-272, chain 1 of 3): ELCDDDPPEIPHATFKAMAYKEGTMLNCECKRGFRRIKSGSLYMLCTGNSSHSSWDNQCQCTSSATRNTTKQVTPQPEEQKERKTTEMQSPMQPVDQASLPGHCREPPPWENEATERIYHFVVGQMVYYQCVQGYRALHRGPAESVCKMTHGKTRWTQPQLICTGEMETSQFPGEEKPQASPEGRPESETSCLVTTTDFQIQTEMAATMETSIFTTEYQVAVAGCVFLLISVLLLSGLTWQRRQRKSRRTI
Chain of UniProt P01589 (P14784 27-551, chain 2 of 3, further chain): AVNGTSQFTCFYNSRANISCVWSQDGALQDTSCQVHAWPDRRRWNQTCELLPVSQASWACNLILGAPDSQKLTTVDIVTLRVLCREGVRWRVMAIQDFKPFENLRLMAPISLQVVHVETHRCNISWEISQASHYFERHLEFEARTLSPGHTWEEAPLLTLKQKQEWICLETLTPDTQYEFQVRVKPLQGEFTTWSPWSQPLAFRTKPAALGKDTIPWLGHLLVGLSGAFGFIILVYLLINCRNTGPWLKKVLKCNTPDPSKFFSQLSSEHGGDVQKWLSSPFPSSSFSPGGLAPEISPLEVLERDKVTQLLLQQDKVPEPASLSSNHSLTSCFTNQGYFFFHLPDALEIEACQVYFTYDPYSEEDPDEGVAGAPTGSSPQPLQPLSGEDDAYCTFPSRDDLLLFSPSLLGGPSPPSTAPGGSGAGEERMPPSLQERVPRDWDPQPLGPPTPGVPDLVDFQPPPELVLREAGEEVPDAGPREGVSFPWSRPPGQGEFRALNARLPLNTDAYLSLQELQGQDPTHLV
Chain of UniProt P01589 (P31785 23-369, chain 3 of 3, further chain): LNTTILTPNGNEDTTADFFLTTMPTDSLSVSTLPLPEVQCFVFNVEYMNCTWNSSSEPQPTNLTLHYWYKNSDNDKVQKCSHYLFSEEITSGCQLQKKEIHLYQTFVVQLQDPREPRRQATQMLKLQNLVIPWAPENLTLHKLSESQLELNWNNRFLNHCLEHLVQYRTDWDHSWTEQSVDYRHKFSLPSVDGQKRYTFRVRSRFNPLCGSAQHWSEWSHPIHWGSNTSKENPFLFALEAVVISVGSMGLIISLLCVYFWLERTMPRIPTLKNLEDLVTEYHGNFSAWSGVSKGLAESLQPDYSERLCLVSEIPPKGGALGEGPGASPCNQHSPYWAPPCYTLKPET

Chain of UniProt P14784 (P14784 27-551): as the sequence (P14784 27-551, chain 2 of 3, further chain) above

- % pSTAT5, EC50 NK cells [1]: 10 pM
- % pSTAT5, EC50 Tregs [2]: 0.7 nM
B1: CD20-T5-NKp46-IL2v3 (protein, part only; not given: anti-CD20 antibody chains, anti-NKp46 domain, part only)
chain, part: SSSTKKTQLQLEHLLLDLQMILNGINNYKNPKLTAMLAKKFYMPKKATELKHLQCLEEELKPLEEVLNLAQSKNFHLRPRDLISNINVIVLELKGSETTFMCEYADETATIVEFLNRWITFCQSIISTLT
